Measurements published in patent US20060040323A1 (SCIENCE AND TECHNOLOGY CORPORATION UNM, published 2006).

Tests used:
[1] = biological target: platelet Fc-gamma RIIA (human) (UniProt P12318); experiment: cell-based or functional assay
[2] = biological target: T1, hPF4/heparin complex (human, UniProt P02776 32-101); experiment: ELISA, wells coated with hPF4/heparin
T1 construct: hPF4 (10 micrograms per milliliter) complexed with heparin (0.2 Units/milliliter in the standard ELISA); heparin is a glycosaminoglycan and not a protein chain; also called P/H
T1 sequence (looked up): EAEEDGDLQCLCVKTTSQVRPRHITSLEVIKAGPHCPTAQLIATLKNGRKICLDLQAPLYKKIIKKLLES
Protocol: (§1) The binding of antibody to either PF4, PF4 variants, PF4 bound to various GAGs or other chemokines complexed to heparin, was measured using an ELISA-based method as previously described (Arepally et al., 1995, Am. J. Clin. Pathol. 104:648). Briefly, to screen hybridoma culture supematants, 96-well microtiter plates were coated overnight at room temperature with 50 micoliters per well of phosphate buffered saline (PBS) containing PF4 (final concentration 10 micrograms per milliliter) in the presence or absence of heparin (0.2 Units/milliliter). The plates were then washed three times with TBS/0.01% Tween-20, blocked with 10% fetal calf serum (FCS) (200 microliters per well) in PBS for 2 hours at room temperature, and washed once more. Culture supernatant was added (50 microliters per well) for 1 hour at room temperature. […] The binding of KKO to PF4 and related chemokines and the binding of KKO to PF4 bound to various GAGs, was measured in the same manner, except that an incubation volume of 100 microliters per well was used.
(§2) The relative specificity of KKO was determined by adding various dilutions of KKO to wells coated with hPF4/heparin complex or hPF4 alone. […] At concentrations less than 0.14 micrograms per milliliter, the ratio of binding of KKO to PF4/heparin complex vs. binding to PF4 alone as determined by A₄₀₅ was greater than 400. […]

[3] = biological target: T2, murine PF4 complexed to heparin (murine, UniProt Q9Z126 30-105); experiment: ELISA, mPF4 complexed to heparin
T2 construct: mature; Complexed to heparin in the ELISA; also called mPF4; mouse PF4
T2 sequence (looked up): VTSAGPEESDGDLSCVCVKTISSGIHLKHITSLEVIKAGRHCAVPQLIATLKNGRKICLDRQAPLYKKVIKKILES
Protocol: as §1, with “temperature. Non-bound antibody was removed by washing, and 50 microliters per well of alkaline-phosphatase conjugated goat anti-mouse IgG, diluted 1:1000 in 10% FCS/PBS was added for 1 hour at room temperature.” for “temperature.”

[4] = biological target: T1, hPF4/heparin complex; experiment: ELISA, KKO at concentrations less than 0.14 micrograms per milliliter
Protocol: as §1, §2

[5] = biological target: T1, hPF4/heparin complex; experiment: ELISA, wells coated with hPF4/heparin or hPF4 alone
Protocol: as §1, with “temperature. Non-bound antibody was removed by washing, and 50 microliters per well of alkaline-phosphatase conjugated goat anti-mouse IgG, diluted 1:1000 in 10% FCS/PBS was added for 1 hour at room temperature.” for “temperature.”

[6] = biological target: T3, hNAP-2 complexed to heparin (human, UniProt P02775 59-128); experiment: ELISA, chemokine complexed to heparin
T3 construct: mature; Complexed to heparin in the ELISA; NAP-2 is its C-terminal product
T3 sequence (looked up): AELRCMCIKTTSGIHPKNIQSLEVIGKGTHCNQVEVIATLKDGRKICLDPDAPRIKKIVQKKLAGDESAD
Protocol: as §1, with “temperature. Non-bound antibody was removed by washing, and 50 microliters per well of alkaline-phosphatase conjugated goat anti-mouse IgG, diluted 1:1000 in 10% FCS/PBS was added for 1 hour at room temperature.” for “temperature.”

[7] = biological target: T4, hIL-8 complexed to heparin (human, UniProt P10145 21-99); experiment: ELISA, chemokine complexed to heparin
T4 construct: mature; Complexed to heparin in the ELISA
T4 sequence (looked up): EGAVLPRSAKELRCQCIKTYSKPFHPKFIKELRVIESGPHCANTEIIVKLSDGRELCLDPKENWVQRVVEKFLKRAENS
Protocol: as §1, with “temperature. Non-bound antibody was removed by washing, and 50 microliters per well of alkaline-phosphatase conjugated goat anti-mouse IgG, diluted 1:1000 in 10% FCS/PBS was added for 1 hour at room temperature.” for “temperature.”

platelet Fc-gamma RIIA (human), sequence (P12318 34-317, form in doubt): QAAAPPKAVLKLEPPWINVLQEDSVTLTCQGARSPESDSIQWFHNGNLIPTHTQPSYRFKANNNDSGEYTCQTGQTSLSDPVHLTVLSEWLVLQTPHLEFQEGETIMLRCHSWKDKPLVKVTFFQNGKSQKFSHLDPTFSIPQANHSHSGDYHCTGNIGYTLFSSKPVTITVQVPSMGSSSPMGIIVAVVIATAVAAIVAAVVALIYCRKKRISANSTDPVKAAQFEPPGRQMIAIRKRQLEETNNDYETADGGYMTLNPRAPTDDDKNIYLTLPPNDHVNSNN

For “Fc-gamma RIIA blocking antibody mAb IV.3”, the 14C-serotonin release induced by KKO [1] was < 5 % release.

B1: murine monoclonal antibody KKO (antibody, V domains shown)
VH: EVQLQQSGAELVKPGASVKLSCKASGYTFTNYFIYWVKQRPGQGLEWIGEINPRNGDTDFNEKFESRATLTVDKSSSTAYMQLSSLTSEDSAIYYCTRSPYGNNYGFTYWGQGTLVTVSA
VL: DIQMIQSQKFMSTSVGDRVTVTCKASQNVGTNVAWYQQKPGQSPNALIYSASYRYSGVPDRFTGSGSGTDFTLTITNVQSEDLADYFCQQYNSYPLTFGTGTKLEIK
notes: Murine IgG2b kappa purified from ascites
In the case of B1, the EC50 [2] is reported as 0.036 µg/mL, the binding result [3] is reported as “no binding” and the “ratio of binding to PF4/heparin complex vs. binding to PF4 alone (A405)” value [4] is reported as > 400 ratio. The “A405 ratio to hPF4/heparin complex versus hPF4 alone” value [5] was > 30 ratio, the binding result [6] was “no binding” and the binding result [7] was “no binding”.
